# Experimental data taken from the RNAGym collection of RNA variant scans (doi:10.7554/elife.80360).
# B1: Hammerhead Ribozyme (parent)
# chain: ACCGGAUGUGCUUUCCGGUCUGAUGAGUCCGUGAGGACGAAACAG
# Variants of: B1
# Assay: self-cleavage, relative activity (ratio to wild type); higher = more cleavage; co-transcriptional
row,Variant,self-cleavage
1,U9A C15A,0.699
2,U9A C15G,0.758
3,U9A C15U,0.848
4,U9A U12C,0.947
5,U9A U12A,1.23
6,U9A U12G,0.802
7,U9A U13A,1.62
8,U9A U13C,1.37
9,U9A U13G,1.1
10,G8C U12G,1.43
11,G8C U12A,1.01
12,G8C U12C,1.11
13,G8C G45A,0.536
14,G8C G45U,0.546
15,G8C G45C,0.717
16,U9A A37C,1.02
17,U9A A37U,0.593
18,U9A A37G,1
19,G8U G39A,0.395
20,G8U G39C,0.417
21,G8U G39U,0.344
22,G8U G25U,0.391
23,G8U G25A,0.317
24,G8U G25C,0.302

row,Variant,self-cleavage
1,U9C A37C,1.03
2,U9C A37G,1.61
3,U9C A37U,0.666
4,U9A U21A,0.528
5,U9A U21G,0.58
6,U9A U21C,0.649
7,G8U A26G,0.351
8,G8U A26U,0.935
9,G8U A26C,0.596
10,U9A C16G,0.742
11,U9A C16U,1.11
12,U9A C16A,1.15
13,U9A U28G,0.823
14,U9A U28A,0.803
15,U9A U28C,0.98
16,G8U U13C,1.34
17,G8U U13A,1.1
18,G8U U13G,1.05
19,G8U C43G,0.333
20,G8U C43A,0.254
21,G8U C43U,0.677
22,G8U C16G,0.731
23,G8U C16U,1.27
24,G8U C16A,0.908

row,Variant,self-cleavage
1,G8U C20A,0.571
2,G8U C20G,0.392
3,G8U C20U,0.551
4,U9C C29A,0.77
5,U9C C29U,0.831
6,U9C C29G,0.601
7,U9A A44C,0.523
8,U9A A44G,1.46
9,U9A A44U,0.557
10,U9A G22C,0.359
11,U9A G22A,0.282
12,U9A G22U,0.311
13,G8C G35U,0.775
14,G8C G35A,0.769
15,G8C G35C,0.726
16,G8U A37G,0.906
17,G8U A37C,1.09
18,G8U A37U,0.774
19,G8C G10U,1.25
20,G8C G10A,1.47
21,G8C G10C,1.47
22,U9A G27A,0.841
23,U9A G27U,0.585
24,U9A G27C,0.609

row,Variant,self-cleavage
1,G8U G33A,0.938
2,G8U G33C,0.57
3,G8U G33U,1.07
4,G8U G45A,0.744
5,G8U G45C,0.768
6,G8U G45U,0.826
7,G8U U9A,1.11
8,G8U U9G,0.751
9,G8U U9C,1
10,U9A U24C,1.38
11,U9A U24G,0.919
12,U9A U24A,1.2
13,G8U U19G,0.369
14,G8U U19A,0.398
15,G8U U19C,0.649
16,G8U A44G,1.37
17,G8U A44U,0.688
18,G8U A44C,0.59
19,G8C U24C,0.769
20,G8C U24A,1.17
21,G8C U24G,1.05
22,G8C C43G,0.403
23,G8C C43A,0.343
24,G8C C43U,0.455

row,Variant,self-cleavage
1,U9A C38A,0.755
2,U9A C38G,0.682
3,U9A C38U,1.23
4,G8C U19C,0.544
5,G8C U19G,0.428
6,G8C U19A,0.295
7,U9A A34G,0.751
8,U9A A34U,0.941
9,U9A A34C,1.2
10,U9A C43U,0.337
11,U9A C43G,0.458
12,U9A C43A,0.333
13,U9C C15A,0.956
14,U9C C15U,0.863
15,U9C C15G,0.49
16,G8U A41C,0.324
17,G8U A41U,0.34
18,G8U A41G,0.328
19,U9C A23G,0.361
20,U9C A23C,0.283
21,U9C A23U,0.358
22,G8C U32C,1.46
23,G8C U32G,1.23
24,G8C U32A,1.28

row,Variant,self-cleavage
1,U9A,1.02
2,U9C,1.02
3,U9C A44U,0.661
4,U9C A44G,1.32
5,U9C A44C,0.493
6,U9A G45A,0.707
7,U9A G45C,0.609
8,U9A G45U,0.638
9,G8U A42C,0.422
10,G8U A42U,0.344
11,G8U A42G,0.367
12,U9C C16G,0.626
13,U9C C16A,1.04
14,U9C C16U,1.41
15,U9A C29G,0.602
16,U9A C29U,0.829
17,U9A C29A,0.49
18,U9C A26C,0.554
19,U9C A26G,0.379
20,U9C A26U,0.671
21,U9C A34G,0.946
22,U9C A34C,0.94
23,U9C A34U,0.65
24,U9A A41C,0.455

row,Variant,self-cleavage
1,U9A A41U,0.37
2,U9A A41G,0.357
3,U9A G31U,1.3
4,U9A G31A,0.825
5,U9A G31C,1.18
6,G8U C30A,0.803
7,G8U C30U,0.942
8,G8U C30G,0.942
9,G8U A34U,0.792
10,G8U A34G,0.927
11,G8U A34C,0.925
12,G8C G27U,0.519
13,G8C G27C,0.63
14,G8C G27A,0.787
15,U9C C20U,0.504
16,U9C C20A,0.363
17,U9C C20G,0.437
18,G8U C15A,0.884
19,G8U C15U,1.05
20,G8U C15G,0.637
21,G8U U24A,1.24
22,G8U U24G,1.11
23,G8U U24C,0.829
